Measurements published in the supplement of paper PMC7125110.
± gives the standard error. This sample holds only a part of the variants without activity.

B1: glmS ribozyme (parent)
chain: AUAAAAGCGCCAGAACUACAGAAAUGUAGUUGACGAGGAGGAGGUUUAUCGAAUUUUCGGCGGAUGCCUCCAAA

Columns and labels:
Conditions in all cases: with glucosamine-6-phosphate
[1] = variants of: B1; assay: self-cleavage kobs at 640 uM GlcN6P; higher = faster cleavage; RNA array
In short: (§1)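 kobs was derived by fitting per-tile medians to one- or two-exponential decays after normalising signals to baseline and to non-cleaving reference variants. Those signals came from barcoded ribozyme variants transcribed in situ by E. coli RNA polymerase on sequenced MiSeq chips, followed through a hybridised Cy3 probe at 37 °C and imaged over ~14 h. Glucosamine-6-phosphate (40 μM to 10 mM) in HEPES/KCl/Mg(OAc)2 buffer was flowed in. Weighted Michaelis–Menten fits across concentrations then gave kcat and KM.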

[2] = variants of: B1; assay: self-cleavage kobs at 2500 uM GlcN6P; higher = faster cleavage; RNA array
In short: as §1

[3] = variants of: B1; assay: self-cleavage kobs at 10000 uM GlcN6P; higher = faster cleavage; RNA array
In short: as §1

Row | Variant | self-cleavage kobs at 640 uM GlcN6P [1] [s⁻¹] | self-cleavage kobs at 2500 uM GlcN6P [2] [s⁻¹] | self-cleavage kobs at 10000 uM GlcN6P [3] [s⁻¹]
1 | U46C U69G | 8.03e-05 ± 1.7e-05 | 0.000153 ± 2.7e-05 | –
2 | G44A U45G U49A C50G | < 1e-05 | < 1e-05 | –
3 | A42U U69C C70A | 0.0004 ± 0.00011 | 0.000308 ± 9.7e-05 | –
4 | G41U C50A U65A | < 1e-05 | – | –
5 | A39U A42C C50G | < 1e-05 | – | < 1e-05
6 | G40U G41C C70A | 6.65e-05 ± 1.8e-05 | 0.000546 ± 0.00013 | –
7 | G41A U65G | < 1e-05 | – | –
8 | G43C C50A | < 1e-05 | < 1e-05 | –
9 | A39U U49C C68G | < 1e-05 | < 1e-05 | < 1e-05
10 | G44A U47G | 5.51e-05 ± 2.3e-05 | 0.00011 ± 3.2e-05 | 0.000111 ± 2.2e-05
11 | A39U A42G U65G | 0.000684 ± 0.00016 | – | –
12 | G40C U56C A64C C70A | < 1e-05 | – | –
13 | U46G C50U C68G | 5.83e-05 ± 2.6e-05 | – | –
14 | G43A U55G C61U G62C | < 1e-05 | – | –
15 | U46A C58G | < 1e-05 | – | –
16 | G40C G41A G43U | < 1e-05 | – | –
17 | A39U C67A C68U | 3.93e-05 ± 1.2e-05 | 0.000112 ± 3e-05 | –
18 | A42G G43A G44C | < 1e-05 | < 1e-05 | –
19 | U46G C67U C71A | 6.72e-05 ± 2e-05 | – | –
20 | A39U G41U U56G | 6.4e-05 ± 1.9e-05 | 0.000106 ± 2.3e-05 | –
21 | G41C U46A G60C | < 1e-05 | < 1e-05 | –

Row | Variant | self-cleavage kobs at 640 uM GlcN6P [1] [s⁻¹] | self-cleavage kobs at 2500 uM GlcN6P [2] [s⁻¹] | self-cleavage kobs at 10000 uM GlcN6P [3] [s⁻¹]
22 | G40U U46C A53U | 0.000351 ± 0.00012 | – | 0.000745 ± 0.00019
23 | A39G A64C U69G C71U | < 1e-05 | < 1e-05 | –
24 | G43A A48G A53U G62C | < 1e-05 | – | –
25 | U45A U49C | < 1e-05 | – | < 1e-05
26 | G43C G51U C61G | < 1e-05 | < 1e-05 | –
27 | U46A U65A | 0.000776 ± 0.0002 | – | –
28 | G41U U47G A53U | 9.96e-05 ± 2.8e-05 | 0.000276 ± 6.9e-05 | –
29 | A42C C61U C68G C71U | < 1e-05 | – | –
30 | G41A A42G U45G | 0.0066 ± 0.002 | – | –
31 | A42C U49C C58U | < 1e-05 | < 1e-05 | –
32 | A39U U46G C50U U54C | < 1e-05 | – | –
33 | G41A G51U C68U C70G | < 1e-05 | < 1e-05 | –
34 | G44A U46C U49C U54G C67G | < 1e-05 | < 1e-05 | –
35 | G40A A42G U46A | 0.000129 ± 4.5e-05 | 0.000599 ± 0.0003 | 0.00096 ± 0.00023
36 | G41A U57C C67A | < 1e-05 | < 1e-05 | –
37 | G40A U45C C50A G60A C67A | < 1e-05 | < 1e-05 | –
38 | G43C G44A C68A | < 1e-05 | < 1e-05 | –
39 | A42U U69C | 0.0106 ± 0.0031 | 0.00357 ± 0.0013 | –
40 | G44C C58G C61G | < 1e-05 | – | –
41 | A39C G51C U56C C70A | < 1e-05 | – | –
42 | G40C G43U U55C | < 1e-05 | < 1e-05 | –

Row | Variant | self-cleavage kobs at 640 uM GlcN6P [1] [s⁻¹] | self-cleavage kobs at 2500 uM GlcN6P [2] [s⁻¹] | self-cleavage kobs at 10000 uM GlcN6P [3] [s⁻¹]
43 | G43A A64U C67A | < 1e-05 | – | –
44 | G40U U65G | 0.000417 ± 0.00014 | 0.00108 ± 0.00028 | 0.0019 ± 0.00044
45 | A39C G40U G44A U55C U65G | < 1e-05 | < 1e-05 | –
46 | U45G U49C | < 1e-05 | – | < 1e-05
47 | G44U G60C G62U | < 1e-05 | < 1e-05 | < 1e-05
48 | A42G U55G A64G C71G | 0.000116 ± 3.7e-05 | 5.98e-05 ± 2e-05 | –
49 | G40A G41A C71A | 6.52e-05 ± 1.3e-05 | 9.76e-05 ± 1.9e-05 | –
50 | G40C G66A C70A | 9.02e-05 ± 2.4e-05 | 0.000246 ± 6.6e-05 | 0.000559 ± 0.0001
51 | U46C G60U | < 1e-05 | < 1e-05 | –
52 | U46A U49A U56C A64G | < 1e-05 | – | –
53 | G40A A42U A48U | < 1e-05 | – | –
54 | U46A U55C | 0.00095 ± 0.00025 | 0.00269 ± 0.00043 | 0.0029 ± 0.00062
55 | G43A A53G G60U | < 1e-05 | < 1e-05 | –
56 | U45A C58A C71U | 0.000102 ± 2.9e-05 | 0.000293 ± 8.3e-05 | –
57 | U46A U54G C70A | 5.86e-05 ± 2.1e-05 | 0.000289 ± 7.5e-05 | –
58 | G41C C50G G51C | < 1e-05 | – | –
59 | A39G G40U C50U | < 1e-05 | < 1e-05 | < 1e-05
60 | G40A U57A C71U | 6.1e-05 ± 2.3e-05 | 0.000149 ± 3.4e-05 | –
61 | G40A G51A G59A | < 1e-05 | – | –
